Experiment [1] has as its target apical domain of CD71 (Screen 3: 'cynomolgus apical domain of human CD71') (cynomolgus (as paragraph 454 words it; ambiguous)). Description: primary ELISA.
For experiment [2] the target is unchanged. The experiment in a line: primary ELISA, RLU ratio to HSA. (ELISA stands for enzyme-linked immunosorbent assay.)

B1: CD71-binding FN3 domain SEQ ID NO: 246 (designed binder)
chain: MSLPAPKNLVVSRVTEDSARLSWTAPDAAFDSFEIAYQELSLWGEAIVLTVPGSERSYDLTGLKPGTEYYVHIGGVKGGIWSSPLSAYFTT
Turning to B1, the RLU in experiment [1] amounted to 6.18e+06 RLU. Besides, the Apical domain:HSA in experiment [2] was determined as 609.

B2: CD71-binding FN3 domain SEQ ID NO: 253 (designed binder)
chain: MSLPAPKNLVVSRVTEDSARLSWTAPDAAFDSFDINYWENESGGEAIALFVPGSERSYDLTGLKPGTEYWVSIGGVKGGRFSEPLYARFTT
For B2, the RLU in experiment [1] came out at 5.78e+06 RLU. The Apical domain:HSA in experiment [2] was 530.

B3: CD71-binding FN3 domain SEQ ID NO: 243 (designed binder)
chain: MSLPAPKNLVVSRVTEDSARLSWTAPDAAFDSFFIGYLEPQPPGEAIHLYVPGSERSYDLTGLKPGTEYNVTIQGVKGGEWSAPLSAIFTT
Consider B3, for which the RLU in experiment [1] came to 4.57e+06 RLU. Also, the Apical domain:HSA in experiment [2] turned out to be 582.

B4: CD71-binding FN3 domain SEQ ID NO: 270 (designed binder)
chain: MSLPAPKNLVVSRVTEDSARLSWTAPDAAFDSFFIGYLEPQPPGEAIHLYVPGSERSYDLTGLKPGTEYNVTIQGVKGGFPSEPLIANSTT
The molecule B4 had an RLU in experiment [1] of 6.3e+06 RLU. In experiment [2], the Apical domain:HSA is 74.

B5: CD71-binding FN3 domain SEQ ID NO: 265 (designed binder)
chain: MSLPAPKNLVVSRVTEDSARLSWTAPDAAFDSFFIGYLEPQPPGEAISLYVPGSERSYDLTGLKPGTEYNVTIQGVKGGFPSDPLVAHFTT
B5 came in with an RLU in experiment [1] of 6.76e+06 RLU. The Apical domain:HSA in experiment [2] came to 488.

B6: CD71-binding FN3 domain SEQ ID NO: 264 (designed binder)
chain: MSLPAPKNLVVSRVTEDSARLSWTAPDAAFDSFFIGYLEPQPPGEAIALYVPGSERSYDLTGLKPGTEYNVTIQGVKGGFPSEPLVVHFTT
With B6, in experiment [1], the RLU is 6.23e+06 RLU. The Apical domain:HSA in experiment [2] was 549.

B7: CD71-binding FN3 domain SEQ ID NO: 266 (designed binder)
chain: MSLPAPKNLVVSRVTEDSARLSWTAPDAAFDSFFIGYLEPQPPGEAIYLLVPGSERSYDLTGLKPGTEYNVTIQGVKGGFPSLPLVATFTT
B7 showed an RLU in experiment [1] of 7.41e+06 RLU. The Apical domain:HSA in experiment [2] amounted to 206.

B8: CD71-binding FN3 domain SEQ ID NO: 262 (designed binder)
chain: MSLPAPKNLVVSRVTEDSARLSWTAPDAAFDSFFIGYLEPQPPGEVIHLFVPGSERSYDLTGLKPGTEYNVTIQGVKGGFPSDPLVASFTT
B8 had an RLU in experiment [1] of 7.2e+06 RLU. The Apical domain:HSA in experiment [2] came to 562.

B9: CD71-binding FN3 domain SEQ ID NO: 258 (designed binder)
chain: MSLPAPKNLVVSRVTEDSARLSWTAPDAAFDSFFIGYLEPQPPGEAIVLGVPGSERSYDLTGLKPGTEYNVTIQGVKGGFPSDPLVASFTT
B9 returned an RLU in experiment [1] of 6.79e+06 RLU. For the same molecule, the Apical domain:HSA in experiment [2] was determined as 302.

B10: CD71-binding FN3 domain SEQ ID NO: 242 (designed binder)
chain: MSLPAPKNLVVSRVTEDSARLSWTAPDAAFDSFEIGYFENLYLGEAIVLTVPGSERSYDLTGLKPGTKYWVQIGGVKGGNWSAPLSAIFTT
In turn, B10 gave an RLU in experiment [1] of 4.84e+06 RLU. For the same molecule, the Apical domain:HSA in experiment [2] amounted to 493.

B11: CD71-binding FN3 domain SEQ ID NO: 250 (designed binder)
chain: MSLPAPKNLVVSRVTEDSARLSWTAPDAAFDSFEIGYFENLYLGEAIVLTVPGSERSYDLTGLKPGTEYWVQIGGVNGGNWSAPLSAIFTT
B11: in experiment [1], the RLU was found to be 5.11e+06 RLU. Also, the Apical domain:HSA in experiment [2] is 211.

B12: CD71-binding FN3 domain SEQ ID NO: 254 (designed binder)
chain: MSLPAPKNLVVSRVTEDSARLSWTAPDAAFDSFEIGYFENLYLGEAIVLWVPGSERSYDLTGLKPGTEYWVQIGGVKGGNWSAPLSAIFTT
For the molecule B12, the RLU in experiment [1] was 5.11e+06 RLU. Moreover, the Apical domain:HSA in experiment [2] came out at 448.

B13: CD71-binding FN3 domain SEQ ID NO: 255 (designed binder)
chain: MSLPAPKNLVVSRVTEDSARLSWTTPDAAFDSFEIAYFEIAWLGEAIVLTVPGSERSYDLTGLKPGTEYWVQIGGVKGGAYSTPLSAIFTT
In turn, B13 showed an RLU in experiment [1] of 5.41e+06 RLU. The Apical domain:HSA in experiment [2] was found to be 131.

B14: CD71-binding FN3 domain SEQ ID NO: 275 (designed binder)
chain: MSLPAPKNLVVSRVTEDSARLSWTAPDAAFDSFEIGYFENLYLGEAIVLTVPGSERSYDLTGLKPGTEYWVQIGGVKGGNWSAPLVAEFTT
Regarding B14, the RLU in experiment [1] was determined as 5.44e+06 RLU. For the same molecule, the Apical domain:HSA in experiment [2] was found to be 515.

B15: CD71-binding FN3 domain SEQ ID NO: 271 (designed binder)
chain: MSLPAPKNLVVSRITEDSARLSWTAPDAAFDSFEIGYWENAYKGEAIVLTVPGSERSYDLTGLKPGTEYVVFIGGVKGGVWSVPLSAIFTT
In turn, B15 showed an RLU in experiment [1] of 4.94e+06 RLU. In experiment [2], the Apical domain:HSA stood at 347.

B16: CD71-binding FN3 domain SEQ ID NO: 248 (designed binder)
chain: MSLPAPKNLVVSRVTEDSARLSWTAPDAAFDSFEIGYFENLYLGEAIVLTVPGSERSYDLTGLKPGTEYVVFIGGVKGGDFSPPLSAIFTT
For the molecule B16, in experiment [1], the RLU worked out at 5.12e+06 RLU. Moreover, the Apical domain:HSA in experiment [2] is 550.

B17: CD71-binding FN3 domain SEQ ID NO: 276 (designed binder)
chain: MSLPAPKNLVVSRVTEDSARLSWTAPDAAFDSFEIAYFELDYVGEAIVLTVPGSERSYDLTGLKPGTEYWVQIGGVKGGTWSGPLSAIFTI
In turn, B17 returned an RLU in experiment [1] of 4.54e+06 RLU. In addition, the Apical domain:HSA in experiment [2] was determined as 90.

B18: CD71-binding FN3 domain SEQ ID NO: 244 (designed binder)
chain: MSLPAPKNLVVSRVTEDSARLSWTAPDAAFDSFEIGYFENLYLGEAIVLTVPGSERSYDLTGLKPGTEYVVFIGGVKGGEYSIPLSAIFTT
B18 displayed an RLU in experiment [1] of 5.23e+06 RLU. For the same molecule, the Apical domain:HSA in experiment [2] turned out to be 630.

B19: CD71-binding FN3 domain SEQ ID NO: 249 (designed binder)
chain: MSLPAPKNLVVSRVTEDSARLSWTAPDAAFDSFEIGYWENAYRGEAIVLTVPGSERSYDLTGLKPGTEYVVFIGGVKGGVWSVPLSAIFTT
In experiment [1], B19 displayed an RLU of 4.81e+06 RLU. The Apical domain:HSA in experiment [2] was 556.

B20: CD71-binding FN3 domain SEQ ID NO: 256 (designed binder)
chain: MSLPVPKNLVVSRVTEDSARLSWTAPDAAFDSFEIGYFENLYLGEAIVLTVPGSERSYDLTGLKPGTEYWVQIGGVKGGNWSAPLSAIFTT
Turning to B20, in experiment [1], the RLU is 4.92e+06 RLU. Besides, the Apical domain:HSA in experiment [2] came to 399.

B21: CD71-binding FN3 domain SEQ ID NO: 263 (designed binder)
chain: MSLPAPKNLVVSRVTEDSARLSWTAPDAAFDSFEIGYFENLYLGEAIVLTVPGSERSYDLTGLKPGTEYWVQIGGVKGGNWSSPLSAIFTT
In experiment [1], B21 showed an RLU of 5.51e+06 RLU. In addition, the Apical domain:HSA in experiment [2] came out at 344.

B22: CD71-binding FN3 domain SEQ ID NO: 257 (designed binder)
chain: MSLPAPKNLVVSHVTEDSARLSWTAPDAAFDSFEIGYWENAYKGEAIVLTVPGSERSYDLTGLKPGTEYVVFIGGVKGGVWSVPLSAIFTT
In the case of B22, in experiment [1], the RLU turned out to be 5.15e+06 RLU. In addition, the Apical domain:HSA in experiment [2] was determined as 687.

B23: CD71-binding FN3 domain SEQ ID NO: 274 (designed binder)
chain: MSLPAPKNLVVSRVTEDSARLSWTAPDAAFDSFEIVYWEQVGVGEAIVLTVPGSERSYDLTGLKPGTEYWVQIGGVKGGGFSEPLSAIFTT
In experiment [1], B23 came in with an RLU of 4.64e+06 RLU. In addition, the Apical domain:HSA in experiment [2] was 581.

B24: CD71-binding FN3 domain SEQ ID NO: 247 (designed binder)
chain: MSLPAPKNLVVSRVTEDSARLSWTAPDAAFDSFEIGYFENLYLGEAIVLTVPGSERSYDLTGLKPGTEYWVQIGGVKGGEWSAPLSAIFTT
The molecule B24 yielded an RLU in experiment [1] of 4.45e+06 RLU. In addition, the Apical domain:HSA in experiment [2] was 679.

B25: CD71-binding FN3 domain SEQ ID NO: 251 (designed binder)
chain: MSLPAPKNLVVSRVTEDSARLSWTAPDAAFDSFEIGYFENLYLGEAIVLTVPGSERSYDLTGLKPGTEYWVQIGGVKGGNWSAPLVATFTT
B25 displayed an RLU in experiment [1] of 5.1e+06 RLU. In experiment [2], the Apical domain:HSA was determined as 903.

B26: CD71-binding FN3 domain SEQ ID NO: 269 (designed binder)
chain: MSLPAPKNLVVSRVTEDSARLSWTAPDAAFDSFEIGYFENDYFGEAIVLTVPGSERSYDLTGLKPGTEYVVFIGGVKGGNWSAPLSAIFTT
In turn, B26 gave an RLU in experiment [1] of 6.01e+06 RLU. The Apical domain:HSA in experiment [2] was found to be 481.

B27: CD71-binding FN3 domain SEQ ID NO: 272 (designed binder)
chain: MSLPAPKNLVVSRVTEDSARLSWTAPDAAFDSFEIAYGEAAYDGEAIALLVPGSERSYDLTGLKPGTEYWVQIGGVKGGNWSAPLSAIFTT
As to B27, in experiment [1], the RLU stood at 4.66e+06 RLU. Besides, in experiment [2], the Apical domain:HSA stood at 476.

B28: CD71-binding FN3 domain SEQ ID NO: 268 (designed binder)
chain: MSLPAPKNLVVSRVTEDSARLSWTAPDAAFDSFEIGYFENLYLGEAIVLTVPGSERSYDPTGLKPGTEYWVQIGGVKGGNWSAPLSAIFTT
For the molecule B28, in experiment [1], the RLU stood at 5.8e+06 RLU. The Apical domain:HSA in experiment [2] worked out at 188.

B29: CD71-binding FN3 domain SEQ ID NO: 259 (designed binder)
chain: MSLPAPKNLVVSRVTEDSARLSWTAPDAAFDSFYIAYAEPRPDGEAILLEVPGSERSYDLTGLKPGTEYSVLIHGVKGGLLSSPLSATFTT
Regarding B29, the RLU in experiment [1] was determined as 5.16e+06 RLU. The Apical domain:HSA in experiment [2] came out at 411.

B30: CD71-binding FN3 domain SEQ ID NO: 261 (designed binder)
chain: MSLPAPKNLVVSRVTEDSARLSWTAPDAAFDSFYIAYAEPRPDGEAILLWVPGSERSYDLTGLKPGTEYSVLIHGVKGGLLSSPLHAYFTT
B30 registered an RLU in experiment [1] of 4.57e+06 RLU. The Apical domain:HSA in experiment [2] came to 714.

B31: CD71-binding FN3 domain SEQ ID NO: 245 (designed binder)
chain: MSLPAPKNLVVSRVTEDSARLSWTAPDAAFDSFEISYWEHTFNGEAIILFVPGSERSYDLTGLKPGTEYYVTIGGVKGGAWSPPLWAHFTT
B31 returned an RLU in experiment [1] of 6.07e+06 RLU. The Apical domain:HSA in experiment [2] amounted to 610.

B32: CD71-binding FN3 domain SEQ ID NO: 267 (designed binder)
chain: MSLPAPKNLVVSRVTEDSARLSWTAPDAAFDSFEISYWEHTFNGEAIILFVPGSERSYDLTGLKPGTEYYVTIGGVKGGAWSPPLWAEFTT
B32: the RLU in experiment [1] amounted to 6.05e+06 RLU. In experiment [2], the Apical domain:HSA came out at 178.

B33: CD71-binding FN3 domain SEQ ID NO: 273 (designed binder)
chain: MLPAPKNLVVSRVTEDSARLSWTAPDAAFDSFEISYWEHTFNGEAIILFVPGSERSYDLTGLKPGTEYYVTIGGVKGGAWSPPLWAEFTT
For the molecule B33, the RLU in experiment [1] worked out at 6.05e+06 RLU. Besides, the Apical domain:HSA in experiment [2] was 1060.

Values taken from patent US20260151494A1.
